Consider 2 molecules from patent US20230057904A1 (Chugai, published 2023).

In assay [1] the target is T1, human CLDN4 (human, UniProt O14493 1-209).
T1 construct: also called hCLDN4; hCLDN4/BaF
T1 sequence: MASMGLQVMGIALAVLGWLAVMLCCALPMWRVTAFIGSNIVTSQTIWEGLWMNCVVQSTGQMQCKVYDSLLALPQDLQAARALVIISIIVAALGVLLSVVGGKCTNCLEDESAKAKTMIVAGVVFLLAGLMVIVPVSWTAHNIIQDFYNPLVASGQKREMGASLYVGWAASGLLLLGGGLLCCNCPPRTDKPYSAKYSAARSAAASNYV
Put plainly: flow cytometry on hCLDN4/BaF (Ba/F3 transfectant), Alexa Fluor 488 anti-human IgG; histogram against KLH/TR01.

For assay [2], the target named is T2, human CLDN3 (human, UniProt O15551 1-220).
T2 construct: also called hCLDN3; hCLDN3/BaF
T2 sequence: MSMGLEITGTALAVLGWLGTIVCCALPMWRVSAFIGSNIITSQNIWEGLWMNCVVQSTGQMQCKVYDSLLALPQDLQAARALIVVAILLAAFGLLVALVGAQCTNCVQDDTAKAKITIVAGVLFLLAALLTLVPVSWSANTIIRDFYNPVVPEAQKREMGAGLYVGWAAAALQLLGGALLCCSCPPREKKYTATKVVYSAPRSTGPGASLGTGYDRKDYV
Put plainly: flow cytometry on hCLDN3/BaF (Ba/F3 transfectant), Alexa Fluor 488 anti-human IgG; histogram against KLH/TR01. The procedure: (§1) Amino acid sequence are highly conserved among CLDN3, CLDN4, CLDN6 and CLDN9. Thus we examined CLDN6 binding specificity by FACS analysis. hCLDN6/BaF, hCLDN3/BaF, hCLDN4/BaF, and hCLDN9/BaF were incubated with CS2201, CS2961, AH05/TR01 and 6PHU3/TR01 at 15 micro g/ml. KLH/TR01 generated in Example 2-3 was used as a staining control. Binding of each antibody was detected with Alexa Fluor 488-conjugated anti human IgG (Invitrogen). Dead cells were separated by eFlour 780 (Invitrogen) staining.

For assay [3], the target named is T3, human CLDN9 (human, UniProt O95484 1-217).
T3 construct: also called hCLDN9; hCLDN9/BaF
T3 sequence: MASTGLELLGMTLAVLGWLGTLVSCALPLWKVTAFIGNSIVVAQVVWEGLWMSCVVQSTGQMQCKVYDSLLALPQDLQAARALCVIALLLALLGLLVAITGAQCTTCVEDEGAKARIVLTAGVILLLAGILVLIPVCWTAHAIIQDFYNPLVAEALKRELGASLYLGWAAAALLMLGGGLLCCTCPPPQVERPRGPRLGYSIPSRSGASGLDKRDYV
Put plainly: flow cytometry on hCLDN9/BaF (Ba/F3 transfectant), Alexa Fluor 488 anti-human IgG; histogram against KLH/TR01.

The target of the next assay is T4, mouse CLDN9 (mouse, UniProt Q9Z0S7 1-217).
T4 construct: also called mCLDN9; mCLDN9/FS293
T4 sequence: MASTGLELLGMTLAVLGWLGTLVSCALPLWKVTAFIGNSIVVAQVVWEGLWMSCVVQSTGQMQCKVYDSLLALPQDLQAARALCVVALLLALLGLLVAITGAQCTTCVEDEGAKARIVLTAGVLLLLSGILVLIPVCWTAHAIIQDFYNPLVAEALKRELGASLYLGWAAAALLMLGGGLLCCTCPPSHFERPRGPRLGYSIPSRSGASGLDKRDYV
Nature of the assay: flow cytometry, FreeStyle 293-F transfectants expressing mouse CLDN9, anti-human IgG Alexa Fluor 647; MFI. The procedure:
(§2) Antibodies were mixed with FreeStyle™ 293-F cells transiently expressed human and mouse CLDN3, 4, 6, and 9 at final concentration of 10 micro g/mL. After 1 hour of incubation, cells were washed by 0.1% BSA containing D-PBS(−), and incubated in 5 micro g/mL of either Goat anti-Human IgG (H+L) Cross-Adsorbed Secondary Antibody, Alexa Fluor 647 (Invitrogen, A21445) or Goat anti-Mouse IgG (H+L) Highly Cross-Adsorbed Secondary Antibody, Alexa Fluor 647 (Invitrogen, A21236), for 1 hour. Cells were then washed with 0.1% BSA containing D-PBS(−), resuspended in 5 micro L of 0.1% BSA containing D-PBS(−), and analyzed by flow cytometer (iQue Screener, intellicyte).

The target in assay [4] is T3, human CLDN9. Put plainly: flow cytometry, FreeStyle 293-F transfectants expressing human CLDN9, anti-human IgG Alexa Fluor 647; MFI. The procedure: as §2
Assay [5] addresses T1, human CLDN4. Put plainly: flow cytometry on hCLDN4/BaF (Ba/F3 transfectant), Alexa Fluor 488 anti-human IgG. The procedure:
as §1

Another assay deals with T5, mouse CLDN4 (mouse, UniProt O35054 1-210).
T5 construct: also called mCLDN4; mCLDN4/FS293
T5 sequence: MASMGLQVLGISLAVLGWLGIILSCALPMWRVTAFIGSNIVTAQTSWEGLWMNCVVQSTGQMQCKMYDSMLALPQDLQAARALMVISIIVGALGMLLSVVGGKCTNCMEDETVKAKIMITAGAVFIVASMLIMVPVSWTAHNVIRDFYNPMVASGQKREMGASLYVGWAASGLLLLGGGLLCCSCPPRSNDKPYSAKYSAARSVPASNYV
Nature of the assay: flow cytometry, FreeStyle 293-F transfectants expressing mouse CLDN4, anti-human IgG Alexa Fluor 647; MFI. The procedure: as §2

In assay [6] the target is T2, human CLDN3. Nature of the assay: flow cytometry on hCLDN3/BaF (Ba/F3 transfectant), Alexa Fluor 488 anti-human IgG. The protocol:
as §1

In the next assay the target is T6, human CLDN6 (Claudin-6) (human, UniProt P56747 1-220).
T6 construct: also called hCLDN6; human Claudin 6
T6 chain: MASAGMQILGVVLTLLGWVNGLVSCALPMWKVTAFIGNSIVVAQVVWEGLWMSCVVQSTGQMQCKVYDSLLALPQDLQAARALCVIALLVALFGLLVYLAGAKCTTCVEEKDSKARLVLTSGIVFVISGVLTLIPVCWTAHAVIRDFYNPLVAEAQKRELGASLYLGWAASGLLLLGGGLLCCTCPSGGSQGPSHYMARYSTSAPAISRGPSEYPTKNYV
Nature of the assay: flow cytometry, FreeStyle 293-F transfectants expressing human CLDN6, anti-human IgG Alexa Fluor 647; MFI.

In the next assay the target is T7, mouse CLDN3 (mouse, UniProt Q9Z0G9 1-219).
T7 construct: also called mCLDN3; mCLDN3/FS293
T7 sequence: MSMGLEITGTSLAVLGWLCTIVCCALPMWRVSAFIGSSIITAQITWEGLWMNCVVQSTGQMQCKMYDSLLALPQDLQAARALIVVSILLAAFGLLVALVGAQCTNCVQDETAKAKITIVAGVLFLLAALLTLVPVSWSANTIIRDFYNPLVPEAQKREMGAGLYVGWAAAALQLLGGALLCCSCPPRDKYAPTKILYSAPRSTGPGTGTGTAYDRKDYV
Nature of the assay: flow cytometry, FreeStyle 293-F transfectants expressing mouse CLDN3, anti-human IgG Alexa Fluor 647; MFI. The procedure:
as §2

Another assay addresses T8, mouse CLDN6 (mouse, UniProt Q9Z262 1-219).
T8 construct: also called mCLDN6; mCLDN6/FS293
T8 chain: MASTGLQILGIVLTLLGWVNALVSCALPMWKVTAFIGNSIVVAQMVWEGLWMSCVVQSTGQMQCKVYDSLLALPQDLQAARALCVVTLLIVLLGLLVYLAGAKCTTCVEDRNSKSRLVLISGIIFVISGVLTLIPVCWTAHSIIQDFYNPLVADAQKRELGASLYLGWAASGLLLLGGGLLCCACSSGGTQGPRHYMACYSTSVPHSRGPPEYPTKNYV
Put plainly: flow cytometry, FreeStyle 293-F transfectants expressing mouse CLDN6, anti-human IgG Alexa Fluor 647; MFI. The procedure: as §2

B1: CS2961 (bispecific antibody, human IgG1, kappa, L234A L235A, N297A)
heavy 1: QVQLVESGGGVVQPGGSLRLSCAASGFTFSSYTMSWVREAPGQGLEWMGTISSGGGRTYYPDSVKGRFTISRDNSKNTLYLQMNSLRDEDTAVYYCARGDYRYDGFAYWGEGTLVTVSSASTKGPSVFPLAPSSKSTSGGTAALGCLVEDYFPEPVTVSWNSGALTSGVHTFPAVLESSGLYSLSSVVTVPSSSLGTQTYICNVNHKPSNTKVDERVEPKSCDKTHTCPPCPAPEAAGGPKVFLFPPKPKDTLMISRTPEVTCVVVDVSHEDPEVKFNWYVDGVEVHNAKTKPREEQYASTYRVVSVLTVLHQDWLNGKEYKCKVSNKGLPSSIEKTISKAKGQPREPQVYTLPPSREEMTKNQVSLTCLVKGFYPSDIAVEWESNGQPENNYKTTPPVLDSDGSFFLYSKLTVDKSRWQQGNVFSCSVMHEALHNHYTQESLSLSP
light 1: DIQMTQSPSSLSASVGDRVTITCRASYNIDSYLAWYQKKPGKAPELLIYYSTLLVDGVPDRFSGSRSGTDFTLTISSLQPEDFATYYCQHYYSIPYTFGQGTKVEIERTVAAPSVFIFPPSDKQLKSGTAKVVCLLNNFYPREAKVQWKVDNALQSGNSKESVTEQDSKDSTYSLSSTLTLSKADYEKHKVYACEVTHQGLSSPVTKSFNRGEC
heavy 2: QVQLVESGGGVVQPGGSLRLSCAASGFTFSNAWMHWVRKAPGKGLEWVAQIKDKSQNYATYVAESVKGRFTISRADSKNSIYLQMNSLKTEDTAVYYCRYVHYAAGYGVDIWGQGTTVTVSSASTKGPSVFPLAPSSKSTSGGTAALGCLVKDYFPEPVTVSWNSGALTSGVHTFPAVLKSSGLYSLSSVVTVPSSSLGTQTYICNVNHKPSNTKVDKRVEPKSCDKTHTCPPCPAPEAAGGPKVFLFPPKPKDTLMISRTPEVTCVVVDVSHEDPEVKFNWYVDGVEVHNAKTKPREEQYASTYRVVSVLTVLHQDWLNGKEYKCKVSNKGLPSSIEKTISKAKGQPREPQVYTLPPSRKEMTKNQVSLTCLVKGFYPSDIAVEWESNGQPENNYKTTPPVLDSDGSFFLYSKLTVDKSRWQQGNVFSCSVMHEALHNHYTQKSLSLSP
light 2: DIVMTQSPLSLPVTPGEPASISCRSSQPLVHSNRNTYLHWYQEKPGQAPRLLIYKVSNRFSGVPDRFSGSGSGTDFTLKISRVEAEDVGVYYCGQGTQVPYTFGQGTKLEIKRTVAAPSVFIFPPSDEQLKSGTAEVVCLLNNFYPREAKVQWKVDNALQSGNSEESVTEQDSKDSTYSLSSTLELSKADYEKHKVYACEVTHQGLSSPVTKSFNRGEC
notes: also called 65HQ39E-SG1212/54L0532Q38K-SK1021//TR01 arm with SG1213/SK1017
In the case of B1, the binding result with human CLDN4 [1], with human CLDN3 [2] and in the assay with human CLDN9 [3] was “no binding (tested: 15 micro g/ml)” throughout.

B2: KLH/TR01 (bispecific antibody, V domains shown)
VH 1: QVQLQQSGPQLVRPGASVKISCKASGYSFTSYWMHWVNQRPGQGLEWIGMIDPSYSETRLNQKFKDKATLTVDKSSSTAYMQLSSPTSEDSAVYYCALYGNYFDYWGQGTTLTVSS
VL 1: DIQMTQSSSSFSVSLGDRVTITCKASEDIYNRLAWYQQKPGNAPRLLISGATSLETGVPSRFSGSGSGKDYTLSITSLQTEDVATYYCQQYWSTPYTFGGGTKLEVK
VH 2: QVQLVESGGGVVQPGGSLRLSCAASGFTFSNAWMHWVRQAPGKGLEWVAQIKDKSQNYATYVAESVKGRFTISRADSKNSIYLQMNSLKTEDTAVYYCRYVHYAAGYGVDIWGQGTTVTVSS
VL 2: DIVMTQSPLSLPVTPGEPASISCRSSQPLVHSNRNTYLHWYQQKPGQAPRLLIYKVSNRFSGVPDRFSGSGSGTDFTLKISRVEAEDVGVYYCGQGTQVPYTFGQGTKLEIK
notes: made by Fab arm exchange; also called bispecific antibody of anti-keyhole limpet hemocyanin (KLH) antibody paired with the human CD3 antibody TR01; negative control
For B2, the binding result with mouse CLDN9 was “no binding (tested: 10 micro g/mL)”; with human CLDN9 [4], “no binding (tested: 10 micro g/mL)”; with human CLDN4 [5] it was “no binding (tested: 15 micro g/ml)”; with mouse CLDN4, “no binding (tested: 10 micro g/mL)”; with human CLDN3 [6], “no binding (tested: 15 micro g/ml)”; in the assay with human CLDN6 (Claudin-6), “no binding (tested: 10 micro g/mL)”. Besides, the binding result with mouse CLDN3 and with mouse CLDN6 was “no binding (tested: 10 micro g/mL)” in each case.
